Reference: publication PMC9848473, “The structure of DarB in complex with Rel^NTD reveals nonribosomal activation of Rel stringent factors” (Science Advances, 2023)

Molecular target: full-length Bacillus subtilis Rel (RelBs) (Bacillus subtilis)
Assay: cell-based or functional assay

B1: Bacillus subtilis DarB (natural protein, UniProt O31698 1-147, looked up)
chain: MISLQSDQLLEATVGQFMIEADKVAHVQVGNNLEHALLVLTKTGYTAIPVLDPSYRLHGLIGTNMIMNSIFGLERIEFEKLDQITVEEVMLTDIPRLHINDPIMKGFGMVINNGFVCVENDEQVFEGIFTRRVVLKELNKHIRSLNK
rate of ^3H-ppGpp hydrolysis by RelBs saturated with DarB: 5.5 fold
